# According to publication doi:10.1101/2024.03.03.583237 (bioRxiv, 2024):
# What was measured:
# Assay in all cases: live-cell binding assay
# SARS-CoV-2 NTD-mFc = SARS-CoV-2 NTD-mFc (SARS-CoV-2 Wuhan-Hu-1 (NC_045512), UniProt P0DTC2)
# RaTG13 NTD-mFc = RaTG13 NTD-mFc (Bat coronavirus RaTG13, UniProt A0ABF7PLN6)
# SARS-CoV-1 NTD-mFc = SARS-CoV-1 NTD-mFc (SARS-CoV-1 (NC_004718, Tor2), UniProt P59594)
# ZC45 NTD-mFc = ZC45 NTD-mFc (Bat SARS-like coronavirus ZC45 …, UniProt A0A2R3SUW7)
binder,measurement,setting,value
"S2L20-CVR (scFv, V domains shown) VH: EVQLVESGGGVVQPGGSLRLSCAASGFTFNSYGMHWVRQAPGKGLEWVAFIRYDGGNKYYADSVKGRFTISRDNSKNTLYLQMKSLRAEDTAVYYCANLKDSRYSGSYYDYWGQGTLVTVS VL: not shown",binding result,SARS-CoV-2 NTD-mFc,binds
same,binding result,RaTG13 NTD-mFc,binds
same,binding result,SARS-CoV-1 NTD-mFc,no binding
same,binding result,ZC45 NTD-mFc,no binding
